No end group written: not given here. TMR = tetramethylrhodamine-5-maleimide
Legend:
[1] = biological target: T1, HMGA2Δ95–108 (mouse, UniProt P52927 1-94); test: SEC; CTP-TMR incubated with HMGA2Δ95–108 for 30 minutes at 24°C, resolved on Sephacryl S-100 HR (1×50 cm) in BPES buffer; OD556 and SDS-PAGE of fractions; conditions: both partners purified
T1 construct: also called mutant that lacks the negatively charged C-terminus; source: made by PCR-based site directed mutagenesis, purified as described previously [26]
T1 sequence (looked up): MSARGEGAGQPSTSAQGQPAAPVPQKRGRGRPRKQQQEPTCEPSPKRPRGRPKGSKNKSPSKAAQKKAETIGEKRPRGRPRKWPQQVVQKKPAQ

[2] = biological target: the molecule itself; test: cross-linking; EDC (2 mM, zero-length) in MES buffer (10 mM MES, pH 5.5, 50 mM NaCl), 2 hours at 24°C; 29-116 μM protein; 15% SDS-PAGE, Coomassie
[3] = biological target: the molecule itself; test: cross-linking; EDC cross-linking of the cysteineless mutant; data not shown
[4] = biological target: the molecule itself; test: FRET or BRET; 20 nM HMGA2-FM titrated with HMGA2-TMR in 50 mM Tris-HCl (pH 8.0), 200 mM NaCl; excitation 492 nm, read at 518 nm

B1: C-terminal peptide (CTP) of HMGA2 labeled with tetramethylrhodamine-5-maleimide (CTP-TMR) (peptide)
peptide: C(TMR)ETEETSSQESAEED
notes: first residue of the printed peptide H-CETEETSSQESAEED-OH; the cysteine that carries the label; the negatively charged C-terminus of HMGA2, mouse; 14 residues; also called the C-terminal peptide; source: synthetic peptide (custom-synthesized by Advanced ChemTech, Inc.), labeled with TMR, purified on SP-sepharose
[1]
  binding result: binds

B2: mammalian high mobility group protein AT-hook 2 (HMGA2) (natural protein, mouse, UniProt P52927 1-108, looked up)
chain: MSARGEGAGQPSTSAQGQPAAPVPQKRGRGRPRKQQQEPTCEPSPKRPRGRPKGSKNKSPSKAAQKKAETIGEKRPRGRPRKWPQQVVQKKPAQETEETSSQESAEED
notes: also called mouse HMGA2; recombinant HMGA2; source: recombinant, purified as described previously [26]
[2]
  stoichiometry N: 2

B3: HMGA2C41G (natural protein, mouse, UniProt P52927 1-108, looked up)
chain: MSARGEGAGQPSTSAQGQPAAPVPQKRGRGRPRKQQQEPTGEPSPKRPRGRPKGSKNKSPSKAAQKKAETIGEKRPRGRPRKWPQQVVQKKPAQETEETSSQESAEED
notes: also called cysteineless mutant protein; source: made by PCR-based site directed mutagenesis, purified as described previously [26]
[3]
  stoichiometry N: 2

B4: HMGA2 labeled with fluorescein-5-maleimide (HMGA2-FM) or tetramethylrhodamine-5-maleimide (HMGA2-TMR) (natural protein, mouse, UniProt P52927 1-108, looked up)
chain: MSARGEGAGQPSTSAQGQPAAPVPQKRGRGRPRKQQQEPTCEPSPKRPRGRPKGSKNKSPSKAAQKKAETIGEKRPRGRPRKWPQQVVQKKPAQETEETSSQESAEED
modifications: fluorescein-5-maleimide (FM) or tetramethylrhodamine-5-maleimide (TMR) on the cysteine residue
notes: labeled at its one cysteine residue; also called HMG-TMR; source: recombinant HMGA2, labeled with TMR or FM, purified (Sephadex G-50 spin columns, dialysis)
[4]
  stoichiometry N: 2
